According to IntAct's records for PubMed 23135401:

Tests used:
pcd15_mouse Pcdh15 = pcd15_mouse Pcdh15 (UniProt Q99PJ1)
Cdh23, Q99PF4-1 [1] = biological target: Cdh23, Q99PF4-1
Cdh23, Q99PF4-1 [2] = biological target: Cdh23, Q99PF4-1; remark: listed apart in the source

Chain of Cdh23, Q99PF4-1 (Q99PF4 whole entry): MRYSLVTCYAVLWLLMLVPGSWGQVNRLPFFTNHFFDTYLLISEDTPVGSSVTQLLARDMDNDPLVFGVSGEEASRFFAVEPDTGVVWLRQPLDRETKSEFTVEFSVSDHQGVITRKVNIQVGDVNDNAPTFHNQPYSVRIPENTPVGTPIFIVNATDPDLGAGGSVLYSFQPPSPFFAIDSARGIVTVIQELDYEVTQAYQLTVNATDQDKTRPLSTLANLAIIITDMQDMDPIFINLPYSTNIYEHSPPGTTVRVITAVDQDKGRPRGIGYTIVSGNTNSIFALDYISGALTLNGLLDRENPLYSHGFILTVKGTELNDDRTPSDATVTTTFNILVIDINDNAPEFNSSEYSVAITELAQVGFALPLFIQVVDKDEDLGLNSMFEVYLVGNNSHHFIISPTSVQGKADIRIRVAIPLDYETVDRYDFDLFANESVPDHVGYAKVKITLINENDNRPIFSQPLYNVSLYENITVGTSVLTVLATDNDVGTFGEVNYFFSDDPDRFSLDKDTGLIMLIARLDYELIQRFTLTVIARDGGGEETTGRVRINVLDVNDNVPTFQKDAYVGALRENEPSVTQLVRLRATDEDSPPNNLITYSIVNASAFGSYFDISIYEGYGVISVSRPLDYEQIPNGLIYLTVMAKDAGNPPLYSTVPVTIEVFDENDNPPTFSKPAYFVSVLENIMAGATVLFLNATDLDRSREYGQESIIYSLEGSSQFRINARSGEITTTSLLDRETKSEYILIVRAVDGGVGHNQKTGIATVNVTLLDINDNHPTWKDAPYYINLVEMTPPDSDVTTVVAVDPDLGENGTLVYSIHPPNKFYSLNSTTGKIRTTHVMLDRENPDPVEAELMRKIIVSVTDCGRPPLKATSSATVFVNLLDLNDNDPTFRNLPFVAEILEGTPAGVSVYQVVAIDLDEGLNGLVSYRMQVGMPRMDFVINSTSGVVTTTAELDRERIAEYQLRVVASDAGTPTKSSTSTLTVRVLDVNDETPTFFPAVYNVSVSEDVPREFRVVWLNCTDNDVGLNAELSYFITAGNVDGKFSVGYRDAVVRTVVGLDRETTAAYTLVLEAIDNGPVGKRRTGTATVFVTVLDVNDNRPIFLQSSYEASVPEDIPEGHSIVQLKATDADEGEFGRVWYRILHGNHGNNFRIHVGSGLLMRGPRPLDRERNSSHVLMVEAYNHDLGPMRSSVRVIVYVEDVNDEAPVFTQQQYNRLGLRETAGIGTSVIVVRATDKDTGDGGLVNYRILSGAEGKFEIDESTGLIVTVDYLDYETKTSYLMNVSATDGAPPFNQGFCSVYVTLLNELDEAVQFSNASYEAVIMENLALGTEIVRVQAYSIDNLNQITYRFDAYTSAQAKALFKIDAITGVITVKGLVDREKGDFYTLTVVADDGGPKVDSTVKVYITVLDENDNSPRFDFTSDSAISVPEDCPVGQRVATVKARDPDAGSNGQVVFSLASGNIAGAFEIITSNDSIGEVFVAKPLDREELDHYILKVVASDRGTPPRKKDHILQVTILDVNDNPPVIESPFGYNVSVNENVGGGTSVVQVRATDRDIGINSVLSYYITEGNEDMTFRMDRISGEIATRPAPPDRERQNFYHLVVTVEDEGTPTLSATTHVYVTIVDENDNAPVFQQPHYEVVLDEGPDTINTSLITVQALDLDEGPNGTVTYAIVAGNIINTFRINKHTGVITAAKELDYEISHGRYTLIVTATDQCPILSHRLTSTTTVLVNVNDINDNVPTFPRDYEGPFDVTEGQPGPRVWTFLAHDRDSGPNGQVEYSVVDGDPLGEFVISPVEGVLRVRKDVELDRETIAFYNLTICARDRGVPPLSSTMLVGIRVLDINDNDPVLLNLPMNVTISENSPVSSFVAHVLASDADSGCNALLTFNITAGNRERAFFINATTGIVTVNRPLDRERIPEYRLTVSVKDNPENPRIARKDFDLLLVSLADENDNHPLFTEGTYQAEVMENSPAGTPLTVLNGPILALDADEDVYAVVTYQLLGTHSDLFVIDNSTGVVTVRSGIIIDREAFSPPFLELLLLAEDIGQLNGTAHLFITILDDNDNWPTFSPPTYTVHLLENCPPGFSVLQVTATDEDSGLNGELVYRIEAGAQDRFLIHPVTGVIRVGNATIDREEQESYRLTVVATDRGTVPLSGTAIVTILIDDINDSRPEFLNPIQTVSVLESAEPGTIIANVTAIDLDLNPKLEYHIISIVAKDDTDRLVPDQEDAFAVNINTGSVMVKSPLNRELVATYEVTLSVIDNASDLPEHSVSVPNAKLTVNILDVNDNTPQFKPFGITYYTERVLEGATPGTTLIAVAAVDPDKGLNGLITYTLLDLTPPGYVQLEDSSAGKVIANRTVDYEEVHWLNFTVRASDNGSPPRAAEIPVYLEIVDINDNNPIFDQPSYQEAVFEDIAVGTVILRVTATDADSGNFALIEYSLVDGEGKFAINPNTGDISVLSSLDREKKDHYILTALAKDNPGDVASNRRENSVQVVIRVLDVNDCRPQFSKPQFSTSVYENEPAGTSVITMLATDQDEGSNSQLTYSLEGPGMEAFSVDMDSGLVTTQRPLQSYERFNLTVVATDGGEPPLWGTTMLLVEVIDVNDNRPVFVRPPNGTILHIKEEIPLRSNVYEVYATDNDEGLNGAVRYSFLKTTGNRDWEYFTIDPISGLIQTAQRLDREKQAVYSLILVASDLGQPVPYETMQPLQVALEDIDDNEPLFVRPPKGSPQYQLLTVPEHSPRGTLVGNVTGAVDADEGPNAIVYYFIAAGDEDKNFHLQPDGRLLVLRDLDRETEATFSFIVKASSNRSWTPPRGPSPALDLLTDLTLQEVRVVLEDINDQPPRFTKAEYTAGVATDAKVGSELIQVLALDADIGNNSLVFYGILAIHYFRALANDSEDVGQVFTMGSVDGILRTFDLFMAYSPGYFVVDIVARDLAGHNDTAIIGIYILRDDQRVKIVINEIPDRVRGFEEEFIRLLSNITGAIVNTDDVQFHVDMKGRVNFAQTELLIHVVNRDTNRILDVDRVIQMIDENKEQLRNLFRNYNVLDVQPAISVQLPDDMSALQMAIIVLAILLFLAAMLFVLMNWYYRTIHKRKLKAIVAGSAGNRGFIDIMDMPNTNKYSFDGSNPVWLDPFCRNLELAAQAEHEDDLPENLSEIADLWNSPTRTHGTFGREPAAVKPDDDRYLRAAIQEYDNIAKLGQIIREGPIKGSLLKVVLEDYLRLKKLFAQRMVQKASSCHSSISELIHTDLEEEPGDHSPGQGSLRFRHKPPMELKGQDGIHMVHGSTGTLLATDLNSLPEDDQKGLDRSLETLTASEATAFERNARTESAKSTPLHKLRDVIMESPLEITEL

effect of a mutation on the interaction (pcd15_mouse Pcdh15)	effect of a mutation on the interaction (Cdh23, Q99PF4-1 [1])	effect of a mutation on the interaction (Cdh23, Q99PF4-1 [2])	Substance
decreasing interaction strength			Cadherin-23 (Mus musculus), Q99PF4-1 D124G
decreasing interaction strength			Cadherin-23 (Mus musculus), Q99PF4-1 L168G
	decreasing interaction strength		Protocadherin-15 (Mus musculus), Q99PJ1 I48A
	decreasing interaction strength	disrupting interaction strength	Protocadherin-15 (Mus musculus), Q99PJ1 R139G
